Measured values from PMC8642242 (Nature Immunology, 2021).
Numbering of substitutions follows the chain as printed.

B1: WRAIR-2025 LALA-PG (human IgG1 with the triple Fc mutation LALA-PG) (antibody, V domains shown)
VH: QVHLVQSGAEVKKPGASVKVSCKVSGYTLVELSVHWVRQAPAKGLEWIGGFDPEDGETIYAQKFQGRVTMTEDTSTDTAYMELTNLRSEDTAVYYCVTSQPFVSPNWFDPWGQGTLVTVSS
VL: QSALTQPASVSGSPGQSITISCTGTSRDVGAYNYVSWYQQHPGKAPKLMIYEVTTRPSGVSNRFSGSKSGNTASLTISGLQAEDEADYYCSSYTGSRTLVFGTGTKVTVL
B2: WRAIR-2039 LALA-PG (human IgG1 with the triple Fc mutation LALA-PG) (antibody, V domains shown)
VH: QVQLVQSGAEVKKPGASVKVSCKVSGYMLIELSMHWVRQAPGKGLEWMGGFDPEDAETIYAQEFQGRVTMTEDTSTDTAYMELSSLRSEDTAVYYCTTGPAVTNRPADYWGPGTLVTVSS
VL: QSVLTQPPSVSGAPGQRVTISCTGSSSNIGASYDVHWYQQLPGTAPKLLIYANSNRPSGVPDRFSGSKSGTSASLAITGLQAEDEADYYCQSYDSSLSYSVVFGGGTKLTVL
B3: WRAIR-2173 LALA-PG (human IgG1 with the triple Fc mutation LALA-PG) (antibody, V domains shown)
VH: QVQLQESGPGLVKPSETLSLTCSVSGDSISSSDYSWGWIRQPPGKGLEWIGTIYYIKNTYYNPSLRSRVTLSVDTSKNLFSLKLSSVTAADTAVYYCARERPPFDVVVVPAARPYNWFDPWGLGTLVIVSS
VL: B2 VL with T5M, S32G, A52G, S54N, E83D, Y99G, V101K
B4: WRAIR-2004 LALA-PG (human IgG1 with the triple Fc mutation LALA-PG) (antibody, V domains shown)
VH: QVQLVQSGAEVKKPGASVKVSCKASGYTFTGYYMHWVRQAPGQGLEWMGRINPSSGGTNYAQKFQGRVTMTRDTSISTAYMELSSLRSDDTAVYYCATDGDDGENWFDPWGQGTLVIVSS
VL: DIQMTQSPSSLSASVGDRVTITCRASQGISSWLAWYQQKPEKAPKSLIYAASSLQSGVPSRFSGSGSGTDFTLTISSLQPEDFATYYCQQYNSYPYTFGQGTKLEIK
B5: WRAIR-2123 LALA-PG (human IgG1 with the triple Fc mutation LALA-PG) (antibody, V domains shown)
VH: EVQLVESGGGVVQPGRSLRLSCAASGFTFSSYAMHWVRQAPGKGLEWVAVLSYDGSNKYNADSVKGRFTISRDNSKNTLYLQMNSLRVEDTAMYYCARDGVSVTMVRGVIGPLCDYWGQGTLVTVSS
VL: not shown

biological target: SARS-CoV-2 S protein, full length (IL1/2020), on 293F-Spike-S2A cells (SARS-CoV-2, USA/IL1/2020 (S identical …, UniProt P0DTC2)); assay: flow cytometry on cells; conditions: one partner purified

Row | Binder | binding result
1 | B1 | binds
2 | B2 | binds
3 | B3 | binds
4 | B4 | binds
5 | B5 | binds
